Several values for one entry are separate records, joined by “and”; a condition that tells them apart may be missing. Equal values may be shown once. Read-outs that look alike come from different tables or passages of the source.
Tests used:
[1] = biological target: 6His-RVFV NP (Rift Valley fever virus nucleoprotein with N-terminal hexahistidine tag) (Rift Valley fever virus (strain Smithburn)) (UniProt P21700); assay: SEC
[2] = biological target: 6His-RVFV NP (Rift Valley fever virus nucleoprotein with N-terminal hexahistidine tag) (Rift Valley fever virus (strain Smithburn)) (UniProt P21700); assay: SEC; remark: listed apart in the source

6His-RVFV NP (Rift Valley fever virus nucleoprotein with N-terminal hexahistidine tag) (from UniProt P21700 1-245) (natural protein)
stoichiometry N [1]: 4.3 | stoichiometry N [2]: 3 and 2

From article PMC3014985
